# B1: EEHEE_rd4_0469 (parent)
# chain: ITIHVNGVTYHFDNPEEAEKFAQKMAKTYQLKMEIHNGEFHME
# Variants of: B1
# Test: folding stability dG (cDNA display proteolysis); higher = more stable
# Conditions: PBS, room temperature
row,Variant,folding stability dG [kcal/mol]
1,ITIHVNGVTYHFDNPEEAEKFAQKMAKLYQLKMEIHNGEFHME [T28L],1.97
2,ITIHVNGVTYHFDNPEEAEKFAQKMAKHYQLKMEIHNGEFHME [T28H],1.45
3,ITIHVNGVTYHFDNPEEAEKFAQKMAKYYQLKMEIHNGEFHME [T28Y],1.91
4,ITIHVNGVTYHFDNPEEAEKFAQKMAKRYQLKMEIHNGEFHME [T28R],1.65
5,ITIHVNGVTYHFDNPEEAEKFAQKMAKIYQLKMEIHNGEFHME [T28I],1.6
6,ITIHVNGVTYHFDNPEEAEKFAQKMAKEYQLKMEIHNGEFHME [T28E],2
7,ITIHVNGVTYHFDNPEEAEKFAQKMAKGYQLKMEIHNGEFHME [T28G],0.636
8,ITIHVNGVTYHFDNPEEAEKFAQKMAKFYQLKMEIHNGEFHME [T28F],1.67
9,ITIHVNGVTYHFDNPEEAEKFAQKMAKQYQLKMEIHNGEFHME [T28Q],1.51
10,ITIHVNGVTYHFDNPEEAEKFAQKMAKDYQLKMEIHNGEFHME [T28D],1.87
11,ITIHVNGVTYHFDNPEEAEKFAQKMAKVYQLKMEIHNGEFHME [T28V],1.22
12,ITIHVNGVTYHFDNPEEAEKFAQKMAKSYQLKMEIHNGEFHME [T28S],0.87
13,ITIHVNGVTYHFDNPEEAEKFAQKMAKAYQLKMEIHNGEFHME [T28A],1.26
14,ITIHVNGVTYHFDNPEEAEKFAQKMAKPYQLKMEIHNGEFHME [T28P],0.094
15,ITIHVNGVTYHFDNPEEAEKFAQKMAKNYQLKMEIHNGEFHME [T28N],1.24
16,ITIHVNGVTYHFDNPEEAEKFAQKMAKMYQLKMEIHNGEFHME [T28M],1.65
17,ITIHVNGVTYHFDNPEEAEKFAQKMAKKYQLKMEIHNGEFHME [T28K],1.69
18,ITIHVNGVTYHFDNPEEAEKFAQKMAKWYQLKMEIHNGEFHME [T28W],1.95
19,ITIHVNGVTYHFDNPEEAEKFAQKMAKTYLLKMEIHNGEFHME [Q30L],0.853
20,ITIHVNGVTYHFDNPEEAEKFAQKMAKTYGLKMEIHNGEFHME [Q30G],1.5

row,Variant,folding stability dG [kcal/mol]
1,ITIHVNGVTYHFDNPEEAEKFAQKMAKTYDLKMEIHNGEFHME [Q30D],1.08
2,ITIHVNGVTYHFDNPEEAEKFAQKMAKTYALKMEIHNGEFHME [Q30A],1.02
3,ITIHVNGVTYHFDNPEEAEKFAQKMAKTYILKMEIHNGEFHME [Q30I],0.708
4,ITIHVNGVTYHFDNPEEAEKFAQKMAKTYELKMEIHNGEFHME [Q30E],1.21
5,ITIHVNGVTYHFDNPEEAEKFAQKMAKTYYLKMEIHNGEFHME [Q30Y],1.14
6,ITIHVNGVTYHFDNPEEAEKFAQKMAKTYVLKMEIHNGEFHME [Q30V],0.688
7,ITIHVNGVTYHFDNPEEAEKFAQKMAKTYMLKMEIHNGEFHME [Q30M],0.881
8,ITIHVNGVTYHFDNPEEAEKFAQKMAKTYKLKMEIHNGEFHME [Q30K],1.12
9,ITIHVNGVTYHFDNPEEAEKFAQKMAKTYPLKMEIHNGEFHME [Q30P],1.53
10,ITIHVNGVTYHFDNPEEAEKFAQKMAKTYFLKMEIHNGEFHME [Q30F],1.14
11,ITIHVNGVTYHFDNPEEAEKFAQKMAKTYRLKMEIHNGEFHME [Q30R],0.814
12,ITIHVNGVTYHFDNPEEAEKFAQKMAKTYNLKMEIHNGEFHME [Q30N],1.17
13,ITIHVNGVTYHFDNPEEAEKFAQKMAKTYHLKMEIHNGEFHME [Q30H],1.43
14,ITIHVNGVTYHFDNPEEAEKFAQKMAKTYWLKMEIHNGEFHME [Q30W],1.11
15,ITIHVNGVTYHFDNPEEAEKFAQKMAKTYTLKMEIHNGEFHME [Q30T],0.699
16,ITIHVNGVTYHFDNPEEAEKFAQKMAKTYSLKMEIHNGEFHME [Q30S],0.808
17,ITIHVNGVTYHFDNPEEAEKFAQKYAKTYQLKMEIHNGEFHME [M25Y],0.664
18,ITIHVNGVTYHFDNPEEAEKFAQKRAKTYQLKMEIHNGEFHME [M25R],0.041
19,ITIHVNGVTYHFDNPEEAEKFAQKQAKTYQLKMEIHNGEFHME [M25Q],0.418
20,ITIHVNGVTYHFDNPEEAEKFAQKPAKTYQLKMEIHNGEFHME [M25P],-0.979

row,Variant,folding stability dG [kcal/mol]
1,ITIHVNGVTYHFDNPEEAEKFAQKTAKTYQLKMEIHNGEFHME [M25T],0.301
2,ITIHVNGVTYHFDNPEEAEKFAQKSAKTYQLKMEIHNGEFHME [M25S],0.059
3,ITIHVNGVTYHFDNPEEAEKFAQKVAKTYQLKMEIHNGEFHME [M25V],0.732
4,ITIHVNGVTYHFDNPEEAEKFAQKWAKTYQLKMEIHNGEFHME [M25W],1.07
5,ITIHVNGVTYHFDNPEEAEKFAQKMAKTCQLKMEIHNGEFHME [Y29C],2.3
6,ITIHVNGVTYHFDNPEEAEKFAQKMAKTEQLKMEIHNGEFHME [Y29E],1.6
7,ITIHVNGVTYHFDNPEEAEKFAQKMAKTGQLKMEIHNGEFHME [Y29G],1.59
8,ITIHVNGVTYHFDNPEEAEKFAQKMAKTLQLKMEIHNGEFHME [Y29L],1.17
9,ITIHVNGVTYHFDNPEEAEKFAQKMAKTAQLKMEIHNGEFHME [Y29A],1.07
10,ITIHVNGVTYHFDNPEEAEKFAQKMAKTRQLKMEIHNGEFHME [Y29R],0.657
11,ITIHVNGVTYHFDNPEEAEKFAQKMAKTKQLKMEIHNGEFHME [Y29K],0.768
12,ITIHVNGVTYHFDNPEEAEKFAQKMAKTVQLKMEIHNGEFHME [Y29V],0.848
13,ITIHVNGVTYHFDNPEEAEKFAQKMAKTDQLKMEIHNGEFHME [Y29D],1.59
14,ITIHVNGVTYHFDNPEEAEKFAQKMAKTWQLKMEIHNGEFHME [Y29W],0.793
15,ITIHVNGVTYHFDNPEEAEKFAQKMAKTTQLKMEIHNGEFHME [Y29T],1.05
16,ITIHVNGVTYHFDNPEEAEKFAQKMAKTIQLKMEIHNGEFHME [Y29I],0.788
17,ITIHVNGVTYHFDNPEEAEKFAQKMAKTHQLKMEIHNGEFHME [Y29H],1.45
18,ITIHVNGVTYHFDNPEEAEKFAQKMAKTSQLKMEIHNGEFHME [Y29S],1.05
19,ITIHVNGVTYHFDNPEEAEKFAQKMAKTQQLKMEIHNGEFHME [Y29Q],1.05

# Reference: the MegaScale stability set (Tsuboyama et al. 2023)
